Data on three molecules can be found in patent publication US20190083609A1, “TOFACITINIB AS VACCINATION IMMUNE MODULATOR” (HELMOLTZ ZENTRUM MÜNCHEN - DEUTSCHES FORSCHUNGSZENTRUM FÜR …, priority 2016, published 2019).

In data set [1] the test system is T cells (total splenocytes from wild type mice). Kind of data set: T cell stimulation in cell culture (viable cells by CellTiter-Glo). The format is cell-based, mouse. The following applies: Tofacitinib 50, 150, 500 ng/ml; IL-2/anti-CD3 low and high stimulation; 4 days. In general terms: ATP-based viability assays read luminescence as a measure of living cells.
Procedure: (§2) For the T and B cell stimulation spleen cell from wild type mice were isolated and cells were cultivated in 200 μl/well in RPMI complete in cell culture plates (100,000 cells/well). For T cell stimulation total splenocytes were incubated 4 days with 1 ng/ml II-2 and 1 pg/ml anti-CD3 (Low) or 5 ng/ml II-2 and 10 pg/ml anti-CD3 (High) and three varying concentrations of Tofacitinib 50 ng/ml, 150 ng/ml and 500 ng/ml. For B cell stimulation cells were stimulated 8 days by incubation with 1 pg/ml anti-CD40 and 1L4 1 ng/ml (Low) and with 1 pg/ml anti-CD40 and 5 ng/ml (High) and three varying concentrations of Tofacitinib 50 ng/ml, 150 ng/ml and 500 ng/ml. The number of viable cells was determined by CellTiter-Glo Assay (Promega) and IgE concentration in the supernatant was measured by ELISA.
The subject of data set [2] is B cells (spleen cells from wild type mice). As to the kind of experiment: B cell stimulation in cell culture (CellTiter-Glo; IgE ELISA of supernatant). The format is cell-based, mouse. The following applies: Tofacitinib 50, 150, 500 ng/ml, 8 days.
Procedure: as §2
The next data set concerns human naive CD4+ T cells. Kind of data set: Differentiation of human naive CD4+ T cells into FOXP3+ CD4+ T cells (flow cytometry). The format is cell-based. The following applies: for increase of the percentage of FOXP3 expressing cells: average of 3 donors versus polarization control; for FOXP3 producing cells within the living CD4+ T cell population: range of 3 donors, control 17.7-43.6%, 5 days. On the procedure:
For the differentiation of human naive CD4^+ T cells into FOXP3^+ CD4^+ T cells, human peripheral blood mononuclear cells were isolated from heparinized whole blood by standard density gradient centrifugation (Lymphoprep, Axis Shield, Oslo, Norway). Naive CD4^+ T cells were isolated using the Naive CD4^+ T cell Kit II (Miltenyi Biotec, Bergisch Gladbach, Germany) and by additional depletion of CD45RO^+ cells (CD45RO microbeads, Miltenyi Biotec). Cells were cultured in RPMI 1640 (Thermo Fisher Scientific, Waltham, Mass. USA) complete (10% FCS, Biochrom, Merck, Berlin, Germany; 2 mM L-glutamine, 100 U/mL Penicillin/Streptomycin, Thermo Fisher Scientific) in 24-well plates at a concentration of 1×10^6 cells/mL at 37° C. After isolation, cells were stimulated with plate-bound anti-CD3 (10 μg/mL; clone UCHT1, BD Biosciences) and 2 μg/mL anti-CD28 (clone CD28.2, BD Biosciences, 2 μg/mL) in solution and cultured for five days. To induce FOXP3 expression, the culture medium was supplemented with 50 U/mL rIL-2 (Novartis, Nurnberg, Germany) and 5 ng/mL TGF-01 (Promokine). Beneath this control, cells were cultured in the presence of different concentrations of Tofacitinib, Rapamycin (Sigma-Aldrich) and Cyclosporine A (Sigma-Aldrich). After three days of culture, half of the medium was removed and replaced by fresh RPMI 1640 complete, supplemented with the same doses of cytokines and agents as at day 0.
After five days of culture, the cells were washed with ice-cold PBS and stained with LIVE/DEAD Fixable Aqua Dead Cell Stain Kit (Thermo Fisher Scientific) according to the manufacturer's protocol. Moreover the cells were stained 1:300 with anti-CD4-Alexa Flour700 (BioLegend) and 1:100 with anti-FOXP3-eFlour450 (eBiosciences, affymetrix, Frankfurt am Main, Germany) by using the FOXP3/Transcription Factor Staining Buffer Set (eBiosciences, affymetrix) according to manufacturer's protocol. The acquisition of cells was performed with BD FACSDIVA 7.0 on a BD
LSR Fortessa (BD Biosciences). Data were analyzed with the software FlowJo (Tree Star, Ashland, Oreg.), the lymphocyte population was gated on CD4^+ cells and dead cells were excluded from the analysis.
(In general: A flow cytometer gives signals particle by particle.)

The conditions of data set [3]: humans; cited from earlier work.
The subject of data set [4] is OVA-allergic mice. As to the kind of experiment: BAL cell infiltration by flow cytometry in OVA allergic airway inflammation / ASIT model. The data set is classed as in vivo, mouse. The protocol:
For allergic sensitization and allergen-challenge, mice were treated twice by intraperitoneal injection of […] OVA (chicken ovalbumin, Sigma, Germany) and 0.5 mg aluminum hydroxide (alum; 40 mg magnesium/40 mg alum per ml; inject® ThermoFischer, Rockford, USA) in 200 μl phosphate buffered saline (PBS) at day (D) 1 and D-7 as previously described (Aguilar-Pimentel J A, Alessandrini F, Huster K M, Jakob T, Schulz H, Behrendt H, et al. Specific CD8 T cells in IgE-mediated allergy correlate with allergen dose and allergic phenotype, Am J Respir Crit Care Med 2010; 181:7-16, and Fuchs H, Gailus-Durner V, Adler T, Aguilar-Pimentel J A, Becker L, Calzada-Wack J, et al. Mouse phenotyping, Methods 2011; 53:120-35). […]
Four experimental groups of mice each group consisting of 14 mice were analyzed in parallel (FIGS. 1 and 2): […]
Flow cytometry was performed to quantify cell surface markers of BAL cells using the following monoclonal antibodies: anti-CD8a, anti-Lytic, anti-CD4, anti-CD62L, anti-CD3, anti-CD25, anti- GO, anti-CD19, anti-CD11 b, anti-CD11 c, and anti-MHC-II (Fuchs H, Gailus-Durner V, Adler T, Aguilar-Pimentel J A, Becker L, Calzada-Wack J, et al. Mouse phenotyping, Methods 2011; 53:120-35). Data were acquired using a LSRII flow cytometer (BD Bioscience) and further analyzed with FACSDiVa (BD Bioscience) and Flowjo V.7.2.2 (Tree star, Ashland, USA) software. […]

The subject of data set [5] is OVA-allergic mice. Kind of data set: Plasma immunoglobulins (total IgE ELISA, IgG1 MSD) after challenge in OVA allergic airway inflammation / ASIT model. The data set is classed as in vivo, mouse. The protocol: (§1) For allergic sensitization and allergen-challenge, mice were treated twice by intraperitoneal injection of […] OVA (chicken ovalbumin, Sigma, Germany) and 0.5 mg aluminum hydroxide (alum; 40 mg magnesium/40 mg alum per ml; inject® ThermoFischer, Rockford, USA) in 200 μl phosphate buffered saline (PBS) at day (D) 1 and D-7 as previously described (Aguilar-Pimentel J A, Alessandrini F, Huster K M, Jakob T, Schulz H, Behrendt H, et al. Specific CD8 T cells in IgE-mediated allergy correlate with allergen dose and allergic phenotype, Am J Respir Crit Care Med 2010; 181:7-16, and Fuchs H, Gailus-Durner V, Adler T, Aguilar-Pimentel J A, Becker L, Calzada-Wack J, et al. Mouse phenotyping, Methods 2011; 53:120-35). Subsequently, mice were challenged by inhalative exposure to OVA aerosol (1% in PBS) for 10 min once a day at D-49, 52 and 55. 24 h after the last challenge (D-56) blood samples were collected and animals sacrificed to obtain bronchoalveolar lavage (BAL) samples.
For allergen-specific-immunotherapy (ASIT), animals were treated by subcutaneous injection of 1 mg OVA D-22, and 0.5 mg OVA D-29. For treatment with Tofacitinib, two doses per day were administrated on D-20 to D-24, and D-27 to D-31. […]

Data set [6] concerns OVA-allergic mice. Kind of data set: Cytokine profile in BAL fluid (MSD multiplex) in OVA allergic airway inflammation / ASIT model. The data set is classed as in vivo, mouse. The protocol: as §1
For allergen-specific-immunotherapy (ASIT), animals were treated by subcutaneous injection of 1 mg OVA D-22, and 0.5 mg OVA D-29. For treatment with Tofacitinib, two doses per day were administrated on D-20 to D-24, and D-27 to D-31.
Flow cytometry was performed to quantify cell surface markers of BAL cells using the following monoclonal antibodies: anti-CD8a, anti-Lytic, anti-CD4, anti-CD62L, anti-CD3, anti-CD25, anti- GO, anti-CD19, anti-CD11 b, anti-CD11 c, and anti-MHC-II (Fuchs H, Gailus-Durner V, Adler T, Aguilar-Pimentel J A, Becker L, Calzada-Wack J, et al. Mouse phenotyping, Methods 2011; 53:120-35). Data were acquired using a LSRII flow cytometer (BD Bioscience) and further analyzed with FACSDiVa (BD Bioscience) and Flowjo V.7.2.2 (Tree star, Ashland, USA) software. Cytokines from BAL were analyzed by a multiplex measurement of proinflammatory cytokines from Meso Scale Discovery electrochemiluminescence assay (MSD, USA).

Data set [7] relates to OVA-allergic mice. Kind of data set: Systemic (plasma) cytokine profile in OVA allergic airway inflammation / ASIT model. The data set is classed as in vivo, mouse. The following applies: after OVA-aerosol challenge. On the procedure:
as §1, with “samples. […]” for “samples.”
Mouse blood samples were collected before and after challenge as previously described (Aguilar-Pimentel J A, Alessandrini F, Huster K M, Jakob T, Schulz H, Behrendt H, et al. Specific CD8 T cells in IgE-mediated allergy correlate with allergen dose and allergic phenotype, Am J Respir Crit Care Med 2010; 181:7-16; Fuchs H, Gailus-Durner V, Adler T, Aguilar-Pimentel J A, Becker L, Calzada-Wack J, et al. Mouse phenotyping, Methods 2011; 53:120-35 and Fulton R J, McDade R L, Smith P L, Kienker L J, Kettman J R, Jr. Advanced multiplexed analysis with the FlowMetrix system, Clin Chem 1997; 43:1749-56) by puncturing the retro-orbital plexus (Li-heparin-coated tubes, KADE, Numbrecht, Germany) under isoflurane anesthesia. […] Plasma total IgE was measured using a classical immunoassay isotope-specific sandwich ELISA. […] Signal intensities of labeled total murine IgE were measured at 450 nm in a standard microwell ELISA reader and results reported in ng/ml based on a standard curve of purified IgE. […]

Take `C[C@@H]1CCN(C(=O)CC#N)C[C@@H]1N(C)c1ncnc2[nH]ccc12` [Tofacitinib, 3-((3R, 4R)-4-methyl-3-[methyl-(7H-pyrrolo[2,3-d]pyrimidin-4-yl)-amino]-piperidin-1-yl)-3-oxopropionitrile]: the “proliferation of T cells” value in data set [1] is reported as “significantly decreased”. The “proliferation of B cells” value in data set [2] (anti-CD40/IL4 low and high stimulation) is recorded as “significantly decreased”. For the same molecule, the “IgE production by B cells” value in data set [2] (anti-CD40/IL4 stimulation, supernatant ELISA) is “decreased”. Moreover, the results for the “increase of the percentage of FOXP3 expressing cells” value in the data set with human naive CD4+ T cells (0.1 μM) and in the data set with human naive CD4+ T cells (1 μM) were “about 2.4 (+/−0.7) fold” and ~2.5 (+/−1.3) fold, respectively. Moreover, the figures for the “FOXP3 producing cells within the living CD4+ T cell population” value in the data set on human naive CD4+ T cells (0.1 μM) and in the data set with human naive CD4+ T cells (1 μM) were 57.2-77.1% and 51.1-70.6%, respectively. Moreover, in the data set on human naive CD4+ T cells (10 μM), the FOXP3-enhancing effect result is “diminished”. In addition, the cytotoxicity entry in the data set with human naive CD4+ T cells (10 μM, data not shown) is recorded as “induced cytotoxicity”. Further, the “mean terminal plasma half-life” value in data set [3] was 3.2 h.
As for `CO[C@H]1C[C@@H]2CC[C@@H](C)[C@@](O)(O2)C(=O)C(=O)N2CCCC[C@H]2C(=O)O[C@H]([C@H](C)C[C@@H]2CC[C@@H](O)[C@H](OC)C2)CC(=O)[C@H](C)/C=C(\C)[C@@H](O)[C@@H](OC)C(=O)[C@H](C)C[C@H](C)/C=C/C=C/C=C/1C` [Rapamycin], the “FOXP3 expression relative to control” value in the data set with human naive CD4+ T cells (concentration not given) worked out at 1.3 fold.

B1: OVA-ASIT: allergen-specific immunotherapy: subcutaneous injection of chicken ovalbumin (OVA) in OVA-sensitized mice (protein, UniProt P01012 2-386, looked up)
Ovalbumin: GSIGAASMEFCFDVFKELKVHHANENIFYCPIAIMSALAMVYLGAKDSTRTQINKVVRFDKLPGFGDSIEAQCGTSVNVHSSLRDILNQITKPNDVYSFSLASRLYAEERYPILPEYLQCVKELYRGGLEPINFQTAADQARELINSWVESQTNGIIRNVLQPSSVDSQTAMVLVNAIVFKGLWEKAFKDEDTQAMPFRVTEQESKPVQMMYQIGLFRVASMASEKMKILELPFASGTMSMLVLLPDEVSGLEQLESIINFEKLTEWTSSNVMEERKIKVYLPRMKMEEKYNLTSVLMAMGITDVFSSSANLSGISSAESLKISQAVHAAHAEINEAGREVVGSAEAGVDAASVSEEFRADHPFLFCIKHIATNAVLFFGRCVSP
As to B1, in the data set on OVA-allergic mice [4] (compared to OVA-allergic mice, BAL 24 h after last challenge (D-56)), the “suppression of total broncho-alveolar lavage cell infiltration” value came to 88%. For the same molecule, the “eosinophil BAL cell infiltration” value in the data set with OVA-allergic mice [4] (median [1st, 3rd quantile], OVA-allergic mice 81%, BAL at D-56) is given as 63.18%. The “total IgG1 levels” value in the data set on OVA-allergic mice [5] (median [quantiles], OVA-allergic mice 0.8267 mg/ml) was found to be 1.936 mg/mL. In addition, in the data set with OVA-allergic mice [5] (versus OVA-allergic mice), the “reduction of total IgE-levels” value is 43.5%. Moreover, in the data set on OVA-allergic mice [6] (barely detectable), the “IFN-γ in BAL fluid” value is recorded as “marginally reduced” and the “IL-2 in BAL fluid” value is listed as “marginally reduced”. In addition, in the data set with OVA-allergic mice [6] (mouse, in vivo), the “IL-5 secretion in BAL” value is recorded as “increase” and the “secretion of Th2-cytokine IL-4 in BAL” value is “reduced”. In addition, in the data set on OVA-allergic mice [6] (versus OVA-allergic mice), the “inhibition of IL-1 beta secretion in BAL fluid” value was found to be 80%, the “inhibition of IL-6 secretion in BAL fluid” value came to 82%, the “inhibition of TNF-a secretion in BAL fluid” value was found to be 84% and the “inhibition of chemokine CXCL1 in BAL fluid” value turned out to be 21%. Also, in the data set with OVA-allergic mice [7], the “effects on IL-2 plasma levels” value is “no significant effects”, the “inhibition of IL-1beta plasma levels” value came out at 41% and the “reduction of IL-6 plasma levels” value turned out to be 44%.
